This passage reports Km and kcat results from PMC8753264.

What all share (experiment): In vitro phosphorylation kinetics with recombinant Akt
What all share (assay type): biochemical
Holding throughout (conditions): other: recombinant Akt; n = 3

Data set [1] concerns CC(C)[C@H](NC(=O)[C@H](CCC(=O)O)NC(=O)[C@H](CCC(=O)O)NC(=O)[C@H](Cc1ccc(O)cc1)NC(=O)[C@H](CCC(=O)O)NC(=O)[C@H](CC(=O)O)NC(=O)[C@H](CC(=O)O)NC(=O)[C@H](CCC(=O)O)NC(=O)[C@@H](CCCNC(=N)N)NC(=O)[C@@H](CCCNC(=N)N)NC(=O)[C@@H](CCCNC(=N)N)NC(=O)[C@H](C)N(C)C(=O)[C@H](Cc1ccccc1)NC(=O)[C@@H](NC(=O)[C@H](Cc1ccccc1)NC(=O)[C@H](C)NC(=O)[C@H](CCCNC(=N)N)N(C)C(=O)[C@@H]1CCCN1C(=O)[C@H](CCCNC(=N)N)NC(=O)CNC(=O)c1ccc2c(c1)C1(OC2=O)c2ccc(O)cc2Oc2cc(O)ccc21)[C@@H](C)O)C(N)=O.

In data set [2] the test system is CC(C)[C@H](NC(=O)[C@H](CCC(=O)O)NC(=O)[C@H](CCC(=O)O)NC(=O)[C@H](Cc1ccc(O)cc1)NC(=O)[C@H](CCC(=O)O)NC(=O)[C@H](CC(=O)O)NC(=O)[C@H](CC(=O)O)NC(=O)[C@H](CCC(=O)O)NC(=O)CCCCCNC(=O)[C@H](C)N(C)C(=O)[C@H](Cc1ccccc1)NC(=O)[C@@H](NC(=O)[C@H](Cc1ccccc1)NC(=O)[C@H](C)NC(=O)[C@H](CCCNC(=N)N)N(C)C(=O)[C@@H]1CCCN1C(=O)[C@H](CCCNC(=N)N)NC(=O)CNC(=O)c1ccc2c(c1)C1(OC2=O)c2ccc(O)cc2Oc2cc(O)ccc21)[C@@H](C)O)C(N)=O.

The test system of data set [3] is CC(C)[C@H](NC(=O)[C@H](CCC(=O)O)NC(=O)[C@H](CCC(=O)O)NC(=O)[C@@H]1Cc2ccc(O)cc2CN1C(=O)[C@H](CCC(=O)O)NC(=O)[C@H](CC(=O)O)NC(=O)[C@H](CC(=O)O)NC(=O)[C@H](CCC(=O)O)NC(=O)[C@@H](CCCNC(=N)N)NC(=O)[C@@H](CCCNC(=N)N)NC(=O)[C@@H](CCCNC(=N)N)NC(=O)[C@H](C)N(C)C(=O)[C@H](Cc1ccccc1)NC(=O)[C@@H](NC(=O)[C@H](Cc1ccccc1)NC(=O)[C@H](C)NC(=O)[C@H](CCCNC(=N)N)N(C)C(=O)[C@@H]1CCCN1C(=O)[C@H](CCCNC(=N)N)NC(=O)CNC(=O)c1ccc2c(c1)C1(OC2=O)c2ccc(O)cc2Oc2cc(O)ccc21)[C@@H](C)O)C(N)=O.

A word on the Km: it is the substrate concentration at which the rate is half of its maximum. As a reminder, the kcat is the number of substrate molecules converted per active site and unit of time at saturation. With recombinant Akt (Homo sapiens), the Km in data set [1] was found to be 14 ± 3 µM; in data set [2] it was 28 ± 16 µM; in data set [3], 17 ± 5 µM. The kcat in data set [1] was 0.7 ± 0.1 s⁻¹; in data set [2], 1.0 ± 0.4 s⁻¹; in data set [3] it was 0.8 ± 0.1 s⁻¹.
